Assay results reported in PMC3997080.

Target: αB-crystallin deletion mutant lacking residues 54FLRAPSWF61 (αBΔ54–61) (human) (UniProt P02511)
Test: SEC-MALS

stoichiometry N (subunits/oligomer): 20
Substance: αB-crystallin deletion mutant lacking residues 54FLRAPSWF61 (αBΔ54–61) (from UniProt P02511 1-175) (natural protein)
